# According to patent US20210324035A1 (University of California, published 2021):
# What was measured:
# [1] = target: T1, NY-ESO-1 (CTAG1B) peptide on HLA-A*02:01 (human); assay: value cited from Robbins et al. 2008 (ref 37); not measured in this filing
# T1 peptide: SLLMWITQC
# [2] = target: T2, HLA-A*02:01/NY-ESO-1 157-165 (…) (Homo sapiens; human); assay: flow cytometry, dextramer MFI on TCR-transduced Jurkat cells
# [3] = target: T2, HLA-A*02:01/NY-ESO-1 157-165 (…); assay: flow cytometry, dextramer MFI on CD8+ Jurkat against Jurkat cells
# [4] = target: T2, HLA-A*02:01/NY-ESO-1 157-165 (…); assay: flow cytometry, A*02:01/NY157-165 dextramer staining of TCR-transduced human T cells from the blood of NSG mice
# [5] = target: T3, NY-ESO-1 (CTAG1B) peptide on HLA-B*07:02 (human); assay: cytokine release
# T3 peptide: APRGPHGGAASGL
# [6] = target: T1, NY-ESO-1 (CTAG1B) peptide on HLA-A*02:01; assay: multimer staining
# [7] = target: T2, HLA-A*02:01/NY-ESO-1 157-165 (…); assay: cell-based or functional assay
# [8] = target: HLA-B*07:02/NY-ESO-1 60-72 (Homo sapiens; human); assay: cell-based or functional assay
# [9] = target: T1, NY-ESO-1 (CTAG1B) peptide on HLA-A*02:01; assay: cytokine release
# [10] = target: T3, NY-ESO-1 (CTAG1B) peptide on HLA-B*07:02; assay: multimer staining
# [11] = target: HLA-B*18:01/NY-ESO-1 88-96 (Homo sapiens; human); assay: cell-based or functional assay
# [12] = target: T4, NY-ESO-1 (CTAG1B) peptide on HLA-B*18:01 (human); assay: multimer staining
# T4 peptide: LEFYLAMPF
molecule,measurement,setting,value
1G4 TCR,Kd,[1],9.3 µM
"1G4 TCR, murinized (murine TCR constant domains)","fold increase of the intensity of dextramer binding, muTCR over parental huTCR",[2],1.4 fold
same,fold increase of dextramer binding in the presence of CD8,[3],3.8 fold
same,percent of transduced T cells dextramer+,[4],90%
"3A1 TCR, murinized (murine TCR constant domains) (TCR, V domains shown, Full-length TCR on transduced Jurkat cells or primary human T cells; Human variable regions with mouse constant regions; also called 3A1 muTCR) V domain 1: GQQLNQSPQSMFIQEGEDVSMNCTSSSIFNTWLWYKQDPGEGPVLLIALYKAGELTSNGRLTAQFGITRKDSFLNISASIPSDVGIYFCAGFLDSNYQLIWGAGTKLIIKP V domain 2: EAQVTQNPRYLITVTGKKLTVTCSQNMNHEYMSWYRQDPGLGLRQIYYSMNVEVTDKGDVPEGYKVSRKEKRNFPLILESPSPNQTSLYFCASASGYRTDTQYFGPGTRLTVLE",fold increase of dextramer binding in the presence of CD8,[3],1.9 fold
"3A1 TCR (TCR, V domains shown) Valpha: GQQLNQSPQSMFIQEGEDVSMNCTSSSIFNTWLWYKQDPGEGPVLLIALYKAGELTSNGRLTAQFGITRKDSFLNISASIPSDVGIYFCAGFLDSNYQLIWGAGTKLIIKP Vbeta: EAQVTQNPRYLITVTGKKLTVTCSQNMNHEYMSWYRQDPGLGLRQIYYSMNVEVTDKGDVPEGYKVSRKEKRNFPLILESPSPNQTSLYFCASASGYRTDTQYFGPGTRLTVL",binding result,[5],no recognition
same,binding result,[6],recognises
"5G6 TCR (TCR, V domains shown) Valpha: DAKTTQPNSMESNEEEPVHLPCNHSTISGTDYIHWYRQLPSQGPEYVIHGLTSNVNNRMASLAIAEDRKSSTLILHRATLRDAAVYYCILRTSGAGSYQLTFGKGTKLSVIP Vbeta: SAVISQKPSRDICQRGTSLTIQCQVDSQVTMMFWYRQQPGQSLTLIATANQGSEATYESGFVIDKFPISRPNLTFSTLTVSNMSPEDSSIYLCSAGGAGASDTQYFGPGTRLTVL",binding result,[6],recognises
"9D2 TCR, murinized (murine TCR constant domains) (TCR, V domains shown) V domain 1: QKEVEQNSGPLSVPEGAIASLNCTYSDRGSQSFFWYRQYSGKSPELIMFIYSNGDKEDGRFTAQLNKASQYVSLLIRDSQPSDSATYLCAVDDKIIFGKGTRLHILP V domain 2: DAGVIQSPRHEVTEMGQEVTLRCKPISGHDYLFWYRQTMMRGLELLIYFNNNVPIDDSGMPEDRFSAKMPNASFSTLKIQPSEPRDSAVYFCASSLGQPSTDTQYFGPGTRLTVLE",IFN-γ secretion of TCR-transduced primary T cells co-incubated with peptide-pulsed A2+ K562 cells; functional sensitivity relative to 4A2,[7],10 fold
"1E4 TCR, murinized (murine TCR constant domains) (TCR, V domains shown) V domain 1: KQEVTQIPAALSVPEGENLVLNCSFTDSAIYNLQWFRQDPGKGLTSLLLIQSSQREQTSGRLNASLDKSSGRSTLYIAASQPGDSATYLCAVSTAYSGGGADGLTFGKGTHLIIQP V domain 2: DTGVSQNPRHKITKRGQNVTFRCDPISEHNRLYWYRQTLGQGPEFLTYFQNEAQLEKSRLLSDRFSAERPKGSFSTLEIQRTEQGDSAMYLCASSPPTVRVYGYTFGSGTRLTVVE",IL-2 production of TCR-transduced Jurkat cells co-incubated with cognate target cells; fold increase of murinized over fully human TCR,[8],1.6 fold
"1E4 TCR (TCR, V domains shown) Valpha: KQEVTQIPAALSVPEGENLVLNCSFTDSAIYNLQWFRQDPGKGLTSLLLIQSSQREQTSGRLNASLDKSSGRSTLYIAASQPGDSATYLCAVSTAYSGGGADGLTFGKGTHLIIQP Vbeta: DTGVSQNPRHKITKRGQNVTFRCDPISEHNRLYWYRQTLGQGPEFLTYFQNEAQLEKSRLLSDRFSAERPKGSFSTLEIQRTEQGDSAMYLCASSPPTVRVYGYTFGSGTRLTVV",binding result,[9],no recognition
same,binding result,[10],recognises
"2B8 TCR, murinized (murine TCR constant domains) (TCR, V domains shown) V domain 1: GQQVMQIPQYQHVQEGEDFTTYCNSSTTLSNIQWYKQRPGGHPVFLIQLVKSGEVKKQKRLTFQFGEAKKNSSLHITATQTTDVGTYFCADPNFGNEKLTFGTGTRLTIIP V domain 2: EAQVTQNPRYLITVTGKKLTVTCSQNMNHEYMSWYRQDPGLGLRQIYYSMNVEVTDKGDVPEGYKVSRKEKRNFPLILESPSPNQTSLYFCASSLNPFATNEKLFFGSGTQLSVLE",IL-2 production of TCR-transduced Jurkat cells co-incubated with cognate target cells; fold increase of murinized over fully human TCR,[11],18.6 fold
"2B8 TCR (TCR, V domains shown) Valpha: GQQVMQIPQYQHVQEGEDFTTYCNSSTTLSNIQWYKQRPGGHPVFLIQLVKSGEVKKQKRLTFQFGEAKKNSSLHITATQTTDVGTYFCADPNFGNEKLTFGTGTRLTIIP Vbeta: EAQVTQNPRYLITVTGKKLTVTCSQNMNHEYMSWYRQDPGLGLRQIYYSMNVEVTDKGDVPEGYKVSRKEKRNFPLILESPSPNQTSLYFCASSLNPFATNEKLFFGSGTQLSVL",binding result,[12],recognises
